Data reported in US20230174655A1 (published 2023).

T1: FcγRIIa type R extracellular domain with C-terminal His tag (human, UniProt P12318 34-217)
T1 chain: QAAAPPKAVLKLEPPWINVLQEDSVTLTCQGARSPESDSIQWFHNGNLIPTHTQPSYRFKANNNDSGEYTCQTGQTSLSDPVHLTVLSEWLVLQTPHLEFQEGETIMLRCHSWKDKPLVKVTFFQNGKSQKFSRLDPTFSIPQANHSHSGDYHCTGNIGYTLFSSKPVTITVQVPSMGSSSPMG


Target: T1, FcγRIIa type R extracellular domain …
Test: SPR (Biacore), antibody captured, FcgR analyte
Text: In the table, SEQ ID NO refers to the SEQ ID NO of the H chain of the evaluated variant, and alteration refers to the alteration introduced into IL6R-B3 (SEQ ID NO: 40). […] Furthermore, KD(IIaR)/KD(IIb) and KD(IIaH)/KD(IIb) in the table respectively represent the value obtained by dividing the KD value of each variant for FcγRIIaR by the KD value of each variant for FcγRIIb, and the value obtained by dividing the KD value of each variant for FcγRIIaH by the KD value of each variant for FcγRIIb. KD(IIb) of the parent polypeptide/KD(IIb) of the altered polypeptide refers to the value obtained by dividing the KD value of the parent polypeptide for FcγRIIb by the KD value of each variant for FcγRIIb.
Kinetic analyses for calculating the KD values of each altered antibody for FcγR were performed according to the following method. First, antibodies of interest were captured onto the above-mentioned sensor chips, and an Fcγ receptor diluted with the running buffer was allowed to interact. The Biacore™ Evaluation Software was used to globally fit the measured results to the obtained sensorgram using the 1:1 Langmuir binding model, and the association rate constant ka (L/mol/s) and the dissociation rate constant kd (1/s) were calculated; and from those values the dissociation constants KD (mol/L) were calculated.

Row | Kd [nM] | Binder
1 | 64 | IL6R-BF063/IL6R-L (antibody, human IgG1, kappa, alteration printed: L234Y/P236D/K326A/A330K; also called IL6R-BF089/IL6R-L; copies: 2 + 2) heavy: QVQLQESGPGLVKPSETLSLTCAVSGHSISHDHAWSWVRQPPGEGLEWIGFISYSGITNYNPSLQGRVTISRDNSKNTLYLQMNSLRAEDTAVYYCARSLARTTAMDYWGEGTLVTVSSASTKGPSVFPLAPSSKSTSGGTAALGCLVKDYFPEPVTVSWNSGALTSGVHTFPAVLQSSGLYSLSSVVTVPSSSLGTQTYICNVNHKPSNTKVDKKVEPKSCDKTHTCPPCPAPEYLGGDSVFLFPPKPKDTLMISRTPEVTCVVVDVSHEDPEVKFNWYVDGVEVHNAKTKPREEQYNSTYRVVSVLTVLHQDWLNGKEYKCKVSNAALPKPIEKTISKAKGQPREPQVYTLPPSRDELTKNQVSLTCLVKGFYPSDIAVEWESNGQPENNYKTTPPVLDSDGSFFLYSKLTVDKSRWQQGNVFSCSVMHEALHNHYTQESLSLSP light: not shown
2 | 830 | IL6R-BF147/IL6R-L (antibody, human IgG1, kappa, alteration printed: L234Y/G237D/P238D/K326A/A330K; copies: 2 + 2) heavy: QVQLQESGPGLVKPSETLSLTCAVSGHSISHDHAWSWVRQPPGEGLEWIGFISYSGITNYNPSLQGRVTISRDNSKNTLYLQMNSLRAEDTAVYYCARSLARTTAMDYWGEGTLVTVSSASTKGPSVFPLAPSSKSTSGGTAALGCLVKDYFPEPVTVSWNSGALTSGVHTFPAVLQSSGLYSLSSVVTVPSSSLGTQTYICNVNHKPSNTKVDKKVEPKSCDKTHTCPPCPAPEYLGDDSVFLFPPKPKDTLMISRTPEVTCVVVDVSHEDPEVKFNWYVDGVEVHNAKTKPREEQYNSTYRVVSVLTVLHQDWLNGKEYKCKVSNAALPKPIEKTISKAKGQPREPQVYTLPPSRDELTKNQVSLTCLVKGFYPSDIAVEWESNGQPENNYKTTPPVLDSDGSFFLYSKLTVDKSRWQQGNVFSCSVMHEALHNHYTQESLSLSP light: not shown
3 | 97 | IL6R-BF085/IL6R-L (H chain SEQ ID NO 72) (antibody, human IgG1, kappa, alteration printed: P238D/K326A/A330K; also called IL6R-BF086/IL6R-L; copies: 2 + 2) heavy: QVQLQESGPGLVKPSETLSLTCAVSGHSISHDHAWSWVRQPPGEGLEWIGFISYSGITNYNPSLQGRVTISRDNSKNTLYLQMNSLRAEDTAVYYCARSLARTTAMDYWGEGTLVTVSSASTKGPSVFPLAPSSKSTSGGTAALGCLVKDYFPEPVTVSWNSGALTSGVHTFPAVLQSSGLYSLSSVVTVPSSSLGTQTYICNVNHKPSNTKVDKKVEPKSCDKTHTCPPCPAPELLGGDSVFLFPPKPKDTLMISRTPEVTCVVVDVSHEDPEVKFNWYVDGVEVHNAKTKPREEQYNSTYRVVSVLTVLHQDWLNGKEYKCKVSNAALPKPIEKTISKAKGQPREPQVYTLPPSRDELTKNQVSLTCLVKGFYPSDIAVEWESNGQPENNYKTTPPVLDSDGSFFLYSKLTVDKSRWQQGNVFSCSVMHEALHNHYTQESLSLSP light: not shown
4 | 69000 | IL6R-BF176/IL6R-L (antibody, human IgG1, kappa, alteration printed: B233D/P238D/K326D/A330K; also called IL6R-BF175/IL6R-L; copies: 2 + 2) heavy: QVQLQESGPGLVKPSETLSLTCAVSGHSISHDHAWSWVRQPPGEGLEWIGFISYSGITNYNPSLQGRVTISRDNSKNTLYLQMNSLRAEDTAVYYCARSLARTTAMDYWGEGTLVTVSSASTKGPSVFPLAPSSKSTSGGTAALGCLVKDYFPEPVTVSWNSGALTSGVHTFPAVLQSSGLYSLSSVVTVPSSSLGTQTYICNVNHKPSNTKVDKKVEPKSCDKTHTCPPCPAPDLLGGDSVFLFPPKPKDTLMISRTPEVTCVVVDVSHEDPEVKFNWYVDGVEVHNAKTKPREEQYNSTYRVVSVLTVLHQDWLNGKEYKCKVSNDALPKPIEKTISKAKGQPREPQVYTLPPSRDELTKNQVSLTCLVKGFYPSDIAVEWESNGQPENNYKTTPPVLDSDGSFFLYSKLTVDKSRWQQGNVFSCSVMHEALHNHYTQESLSLSP light: not shown
5 | 4200 | IL6R-BF085/IL6R-L (H chain SEQ ID NO 71) (antibody, human IgG1, kappa, alteration printed: G237D/P238D/A330K; also called IL6R-BF065/IL6R-L; copies: 2 + 2) heavy: QVQLQESGPGLVKPSETLSLTCAVSGHSISHDHAWSWVRQPPGEGLEWIGFISYSGITNYNPSLQGRVTISRDNSKNTLYLQMNSLRAEDTAVYYCARSLARTTAMDYWGEGTLVTVSSASTKGPSVFPLAPSSKSTSGGTAALGCLVKDYFPEPVTVSWNSGALTSGVHTFPAVLQSSGLYSLSSVVTVPSSSLGTQTYICNVNHKPSNTKVDKKVEPKSCDKTHTCPPCPAPELLGDDSVFLFPPKPKDTLMISRTPEVTCVVVDVSHEDPEVKFNWYVDGVEVHNAKTKPREEQYNSTYRVVSVLTVLHQDWLNGKEYKCKVSNKALPKPIEKTISKAKGQPREPQVYTLPPSRDELTKNQVSLTCLVKGFYPSDIAVEWESNGQPENNYKTTPPVLDSDGSFFLYSKLTVDKSRWQQGNVFSCSVMHEALHNHYTQESLSLSP light: not shown
